What all share (format): biochemical
Data set [1] can be described thus: Test for malate semialdehyde reductase activity. The note with it: for Activity on malate semialdehyde (cofactor NADPH): 0.24 mM NADPH. On the procedure:
Test for Malate Semialdehyde Reductase Activity: Reaction: (L)-Malate semialdehyde+NAD(P)H→(L)-2,4-dihydroxybutyric acid+NAD(P)
The assay mixture contained 200 mM Hepes (pH 7.5), 50 mM KCl, 5 mM MgCl2, 0.24 mM NADH or NADPH, and appropriate amounts of purified enzyme. Reactions were started by adding 10 mM (L)-malate semialdehyde (malate semialdehyde was prepared freshly for each test, see Example 4). Enzymatic assays were carried out at 30° C. in 96-well flat bottomed microtiter plates in a final volume of 250 μL. The reactions were followed by the characteristic absorption of NAD(P)H at 340 nm in a microplate reader (BioRad 680XR).

Data set [2] can be described thus: Aspartate semialdehyde dehydrogenase activity, reverse biosynthetic direction, NADP reduction. The note with it: His-tagged enzyme, pH 9, 30° C. On the procedure: (§1) Enzymatic assay: Aspartate or malate semialdehyde dehydrogenase activities were assayed in the reverse biosynthetic direction by following the reduction of NADP during the oxidation of aspartate or malate semialdehyde to 4-phospho-(L)-aspartate or 4-phospho-(L)-malate, respectively (Roberts et al., 2003). (L)-aspartate semialdehyde (or (L)-malate semialdehyde)+NADP+Pi→4-phospho-(L)-aspartate (or 4-phospho-(L)-malate)+NADPH
(§2) The assay mixture contained 200 mM Hepes (pH 9), 50 mM K2HPO4, 0.25 mM NADP. Reactions were started by adding (L)-aspartate semialdehyde or (L)-malate semialdehyde. (L)-Aspartate semialdehyde was added in the form of L-aspartic acid β-semialdehyde hydrate trifluoroacetate (maintained at pH3 to prevent degradation) which is a suitable substrate for enzymatic tests of homoserine dehydrogenase and aspartate semialdehyde dehysrogenase (Roberts et al., 2003). Unstable malate semialdehyde was produced freshly prior to the enzymatic tests by the deprotection of the stable malate semialdehyde derivative 2-[(4S)-2,2-dimethyl-5-oxo-1,3-dioxolan-4-yl]acetaldehyde (DMODA). […]
(§3) Enzymatic assays were carried out in 96-well flat bottomed microtiter plates in a final volume of 250 μL at 30° C. The reactions were followed by the characteristic absorption of NADPH at 340 nm in a microplate reader (BioRad 680XR).

Data set [3] in a line: Malate semialdehyde dehydrogenase activity, reverse biosynthetic direction, NADP reduction. On the procedure:
as §1, §2, §3

Data set [4] can be described thus: Aspartate kinase activity, ADP production coupled to NADH oxidation. The note with it: purified enzyme, 30° C., pH 7.5. How it is done: Enzymatic assay: Aspartate or malate kinase activities were assayed by coupling ADP production in the kinase reactions to NADH oxidation in the presence of phosphoenolpyruvate, pyruvate kinase, and lactate dehydrogenase.
Aspartate (or Malate) Kinase aspartate (or malate)+ATP→4-phospho-(L)-aspartate (or 4-phospho-(L)-malate)+ADP
Pyruvate Kinase ADP+phosphoenolpyruvate→ATP+pyruvate
Lactate Dehydrogenase pyruvate+NADH→NAD^++lactate
The assay mixture contained 50 mM Hepes (pH 7.5), 50 mM KCl, 5 mM MgCl2, 0.24 mM NADH, 0.96 mM ATP, 0.96 mM PEP, 9 μg/mL of lactate dehydrogenase (Sigma, L2500), 12.4 μg/mL pyruvate kinase (Sigma, P1506), and appropriate amounts of purified aspartate (malate) kinase. Reactions were started by adding 50 mM (L)-aspartate or (L)-malate. Enzymatic assays were carried out at 30° C. in 96-well flat bottomed microtiter plates in a final volume of 250 μL. The reactions were followed by the characteristic absorption of NADH at 340 nm in a microplate reader (BioRad 680XR).
Maximum activities for LysC and Hom3 on aspartate were 4.5 μmol/(min*mgprot) and 1.6 μmol/(min*mgprot), respectively. The Km value for aspartate was estimated with the method of Eadie and Hofstee by measuring initial reaction rates (v) at different substrate concentrations (c) and by extracting the slope of the v versus v/c plot. […]

Data set [5] is described as follows: Hydroxamate assay to verify phosphorylation of the substrate. As to conditions: 10 mM malate, 10 mM ATP, 30 min. How it is done:
Hydroxamate assay: To verify phosphorylation of the substrate, i.e. formation of an acylphosphate anhydride, by wild-type or mutated aspartate kinases, the product of the kinase reaction was incubated with hydroxylamine to form the corresponding aspartate or malate hydroxamate derivative. The assay mixture contained 120 mM Hepes (pH 8), 200 mM KCl, 10 mM ATP, 200 mM hydroxylamine, 10 mM aspartate or malate, and appropriate amount of purified protein. The reaction was stopped after 30 min by addition of an equal volume of 1.7% (w/v) FeCl3 in 1 M hydrochloric acid. Formation of the hydroxamate-iron complex was verified by measuring its characteristic absorbance at 540 nm in a microtiter plate reader. Assay mixtures containing all components except for ATP were used as a blank.

Where [6] appears, read: 10 mM (L)-malate semialdehyde, 30° C.

B1: YPR1: methylbutyraldehyde reductase from Saccharomyces cerevisiae (protein, listed as Saccharomyces cerevisiae)
chain: MPATLKNSSATLKLNTGASIPVLGFGTWRSVDNNGYHSVIAALKAGYRHIDAAAIYLNEEEVGRAIKDSGVPREEIFITTKLWGTEQRDPEAALNKSLKRLGLDYVDLYLMHWPVPLKTDRVTDGNVLCIPTLEDGTVDIDTKEWNFIKTWELMQELPKTGKTKAVGVSNFSINNIKELLESPNNKVVPATNQIEIHPLLPQDELIAFCKEKGIVVEAYSPFGSANAPLLKEQAIIDMAKKHGVEPAQLIISWSIQRGYVVLAKSVNPERIVSNFKIFTLPEDDFKTISNLSKVHGTKRVVDMKWGSFPIFQ
With B1, the “Activity on malate semialdehyde (cofactor NADPH)” value in data set [1] (setting [6]) is given as 0.19 μmol/(min*mg_prot).

B2: H39R N43H (SEQ ID NO: 81): M. sedula succinic semialdehyde reductase double mutant H39R N43H (protein, listed as Metallosphaera sedula)
chain: MKAAVLHTYKEPLSIEDVNISQPKAGEVKIKVKATGLCRSDVHVFEGKTPVPPPVVAGHEISGIVEEVGPGVTRVKPGDRVISAFIHPCGKCGNCVAGKENLCETFSQVRLKGVMPDGTSRLSKDGKEIRTFLGGGFAEYAIVGENALTRVPEDMDLEKVAVLGCAGLTGYGAISSSKIEPGDTVAVIGVGGVGLSTIQLLRASGAGRIIAVGTKKWKLDRAMELGATDVVNSKEIDPVKAIKEITGGGPQVVIEAGGNEDTIHMALDSVRIGGKVVLVGLPPATAMIPIRVASIVRGGIEVVGNYGGRPRVDMPKLLELVRQGRYDPSRLVTGRFRLEEINEAVKMLEEGEAIRSLIIP
In the case of B2, the “Affinity for malate semialdehyde compared to the wild type enzyme” value in data set [1] was “improved affinity”.

B3: Ms-SSR: succinic semialdehyde reductase from Metallosphaera sedula, wild type (protein, listed as Metallosphaera sedula)
chain: MKAAVLHTYKEPLSIEDVNISQPKAGEVKIKVKATGLCHSDVNVFEGKTPVPPPVVAGHEISGIVEEVGPGVTRVKPGDRVISAFIHPCGKCGNCVAGKENLCETFSQVRLKGVMPDGTSRLSKDGKEIRTFLGGGFAEYAIVGENALTRVPEDMDLEKVAVLGCAGLTGYGAISSSKIEPGDTVAVIGVGGVGLSTIQLLRASGAGRIIAVGTKKWKLDRAMELGATDVVNSKEIDPVKAIKEITGGGPQVVIEAGGNEDTIHMALDSVRIGGKVVLVGLPPATAMIPIRVASIVRGGIEVVGNYGGRPRVDMPKLLELVRQGRYDPSRLVTGRFRLEEINEAVKMLEEGEAIRSLIIP
Turning to B3, the “Activity on malate semialdehyde (cofactor NADH)” value in data set [1] (10 mM (L)-malate semialdehyde, 0.24 mM NADH, 30° C.) is on record as 4.9 μmol/(min*mg_prot). In data set [1] (setting [6]), the “Activity on malate semialdehyde (cofactor NADPH)” value is 4.9 μmol/(min*mg_prot).

B4: Asd: wild-type aspartate semialdehyde dehydrogenase of E. coli, His-tagged (protein, listed as Escherichia coli)
chain: MKNVGFIGWRGMVGSVLMQRMVEERDFDAIRPVFFSTSQLGQAAPSFGGTTGTLQDAFDLEALKALDIIVTCQGGDYTNEIYPKLRESGWQGYWIDAASSLRMKDDAIIILDPVNQDVITDGLNNGIRTFVGGNCTVSLMLMSLGGLFANDLVDWVSVATYQAASGGGARHMRELLTQMGHLYGHVADELATPSSAILDIERKVTTLTRSGELPVDNFGVPLAGSLIPWIDKQLDNGQSREEWKGQAETNKILNTSSVIPVDGLCVRVGALRCHSQAFTIKLKKDVSIPTVEELLAAHNPWAKVVPNDREITMRELTPAAVTGTLTTPVGRLRKLNMGPEFLSAFTVGDQLLWGAAEPLRRMLRQLA
modifications: His tag
notes: wild-type aspartate semialdehyde dehydrogenase of E. coli, His-tagged
Turning to B4, in data set [2], the “Maximum specific activity, oxidation of (L)-aspartate semialdehyde to 4-phospho-(L)-aspartate” value is 160 μmol/(min*mgprot). For the same molecule, the “Activity on (L)-malate semialdehyde” value in data set [3] (His-tagged enzyme, pH 9, 30° C.) is on record as 0.01 μmol/(min*mgprot).

B5: Asd E241Q T136N: double mutant of E. coli aspartate semialdehyde dehydrogenase Asd (protein, listed as Escherichia coli)
chain: MKNVGFIGWRGMVGSVLMQRMVEERDFDAIRPVFFSTSQLGQAAPSFGGTTGTLQDAFDLEALKALDIIVTCQGGDYTNEIYPKLRESGWQGYWIDAASSLRMKDDAIIILDPVNQDVITDGLNNGIRTFVGGNCNVSLMLMSLGGLFANDLVDWVSVATYQAASGGGARHMRELLTQMGHLYGHVADELATPSSAILDIERKVTTLTRSGELPVDNFGVPLAGSLIPWIDKQLDNGQSRQEWKGQAETNKILNTSSVIPVDGLCVRVGALRCHSQAFTIKLKKDVSIPTVEELLAAHNPWAKVVPNDREITMRELTPAAVTGTLTTPVGRLRKLNMGPEFLSAFTVGDQLLWGAAEPLRRMLRQLA
For B5, the Maximum specific activity in data set [3] (substrate not given, Example 5 tests malate semialdehyde dehydrogenase activity) is recorded as 0.25 μmol/(min*mgprot).

B6: LysC: wild-type aspartate kinase III of E. coli encoded by the lysC gene (protein, listed as Escherichia coli)
chain: MSEIVVSKFGGTSVADFDAMNRSADIVLSDANVRLVVLSASAGITNLLVALAEGLEPGERFEKLDAIRNIQFAILERLRYPNVIREEIERLLENITVLAEAAALATSPALTDELVSHGELMSTLLFVEILRERDVQAQWFDVRKVMRTNDRFGRAEPDIAALAELAALQLLPRLNEGLVITQGFIGSENKGRTTTLGRGGSDYTAALLAEALHASRVDIWTDVPGIYTTDPRVVSAAKRIDEIAFAEAAEMATFGAKVLHPATLLPAVRSDIPVFVGSSKDPRAGGTLVCNKTENPPLFRALALRRNQTLLTLHSLNMLHSRGFLAEVFGILARHNISVDLITTSEVSVALTLDTTGSTSTGDTLLTQSLLMELSALCRVEVEEGLALVALIGNDLSKACGVGKEVFGVLEPFNIRMICYGASSHNLCFLVPGEDAEQVVQKLHSNLFE
As to B6, in data set [4], the “Maximum activity on aspartate” value is on record as 4.5 μmol/(min*mgprot). For the same molecule, the “Phosphorylation of malate as verified by the hydroxamate assay” value in data set [5] is “not able to phosphorylate malate”.

B7: Hom3: wild-type aspartate kinase of Saccharomyces cerevisiae encoded by HOM3 (protein, listed as Saccharomyces cerevisiae)
chain: MPMDFQPTSSHSNWVVQKFGGTSVGKFPVQIVDDIVKHYSKPDGPNNNVAVVCSARSSYTKAEGTTSRLLKCCDLASQESEFQDIIEVIRQDHIDNADRFILNPALQAKLVDDTNKELELVKKYLNASKVLGEVSSRTVDLVMSCGEKLSCLFMTALCNDRGCKAKYVDLSHIVPSDFSASALDNSFYTFLVQALKEKLAPFVSAKERIVPVFTGFFGLVPTGLLNGVGRGYTDLCAALIAVAVNADELQVWKEVDGIFTADPRKVPEARLLDSVTPEEASELTYYGSEVIHPFTMEQVIRAKIPIRIKNVQNPLGNGTIIYPDNVAKKGESTPPHPPENLSSSFYEKRKRGATAITTKNDIFVINIHSNKKTLSHGFLAQIFTILDKYKLVVDLISTSEVHVSMALPIPDADSLKSLRQAEEKLRILGSVDITKKLSIVSLVGKHMKQYIGIAGTMFTTLAEEGINIEMISQGANEINISCVINESDSIKALQCIHAKLLSERTNTSNQFEHAIDERLEQLKRLGI
For the molecule B7, in data set [4], the “Maximum activity on aspartate” value is recorded as 1.6 μmol/(min*mgprot). In data set [5], the “Phosphorylation of malate as verified by the hydroxamate assay” value is “not able to phosphorylate malate”.

The values are drawn from patent US10358663B2, “Method of production of 2,4-dihydroxybutyric acid” (ADISSEO FRANCE S.A.S., priority 2010, dated 2019).
